This note sets out measurements from US20250296960A1, “PEPTIDE COMPOSITIONS AND METHODS OF USE THEREOF” (priority 2022, published 2025).

Numbered stars: 1 amine (or outer) side, 2 acyl side, 3 side chain; on linkers, the order of the positions; unused ones are H or OH. Square brackets hold non-standard residues; d marks the D form. Side chains are listed from the residue outwards. Ends that are not written are not given here. * marks the point of attachment. C18 = C18 fatty acid (C16-C22 fatty acids conjugated via γGlu/8-amino-3,6-dioxaoctanoic acid spacers); Biotin = O=C1N[C@H]2[C@H](CS[C@H]2CCCCC(=O)*)N1; γGlu = O=C(O)[C@H](CCC(=O)[*:2])N[*:1]; AEEA = NCCOCCOCC(=O)O; Aib = CC(C)(N)C(=O)O

T1: human glucose-dependent insulinotropic polypeptide receptor (GIPR), expressed on CHO-K1 cells (human, UniProt P48546 22-466)
T1 sequence (looked up): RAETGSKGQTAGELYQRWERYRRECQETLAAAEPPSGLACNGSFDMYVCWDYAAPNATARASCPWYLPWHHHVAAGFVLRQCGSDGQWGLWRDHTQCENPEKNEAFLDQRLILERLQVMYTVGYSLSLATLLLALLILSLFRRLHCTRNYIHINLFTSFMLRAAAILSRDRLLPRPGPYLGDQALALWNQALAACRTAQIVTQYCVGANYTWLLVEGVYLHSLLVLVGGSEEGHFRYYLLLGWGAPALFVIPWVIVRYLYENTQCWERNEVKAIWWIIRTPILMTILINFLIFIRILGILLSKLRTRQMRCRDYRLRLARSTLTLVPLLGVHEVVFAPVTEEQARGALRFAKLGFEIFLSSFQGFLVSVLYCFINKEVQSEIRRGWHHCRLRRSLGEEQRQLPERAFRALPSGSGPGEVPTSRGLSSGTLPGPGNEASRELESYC

B1: SEQ ID NO. 86 (peptide)
peptide: Y[Aib]QGTFTSDYSK([AEEA-AEEA-γGlu-C18])LLDKMMQRDFVQWLLEGGPSSGAPPPS-NH2
modifications: not fully specified (residue 16); printed as YAibQGT FTSDY SK*LLD B*MMQR DFVQW LLEGG PSSGA PPPS
B2: SEQ ID NO. 88 (peptide)
peptide: Y[Aib]QGTFTSDYSK([AEEA-AEEA-γGlu-C18])LLDYMMQKDFVQWLLEGGPSSGAPPPS-NH2
modifications: not fully specified (residue 20); printed as YAibQGT FTSDY SK*LLD YMMQB* DFVQW LLEGG PSSGA PPPS
B3: SEQ ID NO. 89 (peptide)
peptide: Y[Aib]QGTFTSDYSK([AEEA-AEEA-γGlu-C18])LLDYMMQRDFVKWLLEGGPSSGAPPPS-NH2
modifications: not fully specified (residue 24); printed as YAibQGT FTSDY SK*LLD YMMQR DFVB*W LLEGG PSSGA PPPS

Sequence of human glucagon receptor (GCGR), expressed on CHO-K1 cells (P47871 26-477): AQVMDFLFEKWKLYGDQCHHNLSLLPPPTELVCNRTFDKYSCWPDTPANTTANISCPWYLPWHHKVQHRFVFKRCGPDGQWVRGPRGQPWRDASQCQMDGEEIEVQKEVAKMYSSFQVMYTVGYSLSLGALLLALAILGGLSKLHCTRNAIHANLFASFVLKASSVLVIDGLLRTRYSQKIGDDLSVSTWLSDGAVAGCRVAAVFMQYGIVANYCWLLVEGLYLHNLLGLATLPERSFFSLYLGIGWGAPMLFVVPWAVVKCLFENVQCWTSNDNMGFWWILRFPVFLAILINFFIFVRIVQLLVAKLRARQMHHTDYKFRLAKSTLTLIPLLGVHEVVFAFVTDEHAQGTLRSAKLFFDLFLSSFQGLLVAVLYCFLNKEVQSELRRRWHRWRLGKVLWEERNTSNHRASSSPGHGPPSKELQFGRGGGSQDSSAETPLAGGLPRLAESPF

One test has as its target human glucagon receptor (GCGR), expressed on CHO-K1 cells (human, UniProt P47871 26-477). Description: cell-based or functional assay.
With B1, the “Ratio vs. GLP-1R” value came out at 157 and the “Relative % to native ligand” value worked out at 142%.
The like results for Y[Aib]QGTFTSDYSK([AEEA-AEEA-γGlu-C18])LLDYMMQ[Aib]DFVQYLLEGGPSSGAPPPS-NH2 [SEQ ID NO. 85] were, in that order, 305 and 38%.
The corresponding values for Y[Aib]QGTFTSDYSK([AEEA-AEEA-γGlu-C18])YLDYMMQRDFVK(Biotin)WLLEGGPSSGAPPPS (ends and bridges not checked) [SEQ ID NO. 97] are 28 and 30%.
Turning to B2, the “Ratio vs. GLP-1R” value stood at 120 and the “Relative % to native ligand” value is 20%.
The corresponding values for B3 are 117 and 45%.
The like results for Y[Aib]QGTFTSDYSK([AEEA-AEEA-γGlu-C18])LLDYMMQ[Aib]DFVQWLLEGGPSSGAPPPS-NH2 [SEQ ID NO. 84] were, in that order, 28 and 20%.
The corresponding values for Y[Aib]QGTFTSDYSK([AEEA-AEEA-γGlu-C18])LLDYMMQRDFVQWLLEGGPSSGAPPPSK(Biotin)-NH2 [SEQ ID NO. 90] are 39 and 19%.

The next test has as its target T1, human glucose-dependent insulinotropic …. Description: cell-based or functional assay.
Take B1: the “Ratio vs. GLP-1R” value was determined as 639 and the “Relative % to native ligand” value came to 575%.
The corresponding values for Y[Aib]QGTFTSDYSK([AEEA-AEEA-γGlu-C18])LLDYMMQ[Aib]DFVQYLLEGGPSSGAPPPS-NH2 [SEQ ID NO. 85] are 1150 and 143%.
The corresponding values for Y[Aib]QGTFTSDYSK([AEEA-AEEA-γGlu-C18])YLDYMMQRDFVK(Biotin)WLLEGGPSSGAPPPS (ends and bridges not checked) [SEQ ID NO. 97] are 117 and 123%.
On to B2, for which the “Ratio vs. GLP-1R” value was 432 and the “Relative % to native ligand” value was found to be 71%.
The corresponding values for B3 are 399 and 154%.
The corresponding values for Y[Aib]QGTFTSDYSK([AEEA-AEEA-γGlu-C18])LLDYMMQ[Aib]DFVQWLLEGGPSSGAPPPS-NH2 [SEQ ID NO. 84] are 470 and 335%.
The like results for Y[Aib]QGTFTSDYSK([AEEA-AEEA-γGlu-C18])LLDYMMQRDFVQWLLEGGPSSGAPPPSK(Biotin)-NH2 [SEQ ID NO. 90] were, in that order, 311 and 154%.

In the next test the target is human GLP-1 receptor (GLP-1R), expressed on CHO-K1 cells (human, UniProt P43220 24-463). Kind of test: cell-based or functional assay.
Regarding B1, the “Ratio vs. GLP-1R” value was determined as 100 and the “Relative % to native ligand” value was determined as 90%.
The like results for Y[Aib]QGTFTSDYSK([AEEA-AEEA-γGlu-C18])LLDYMMQ[Aib]DFVQYLLEGGPSSGAPPPS-NH2 [SEQ ID NO. 85] were, in that order, 100 and 12%.
The corresponding values for Y[Aib]QGTFTSDYSK([AEEA-AEEA-γGlu-C18])YLDYMMQRDFVK(Biotin)WLLEGGPSSGAPPPS (ends and bridges not checked) [SEQ ID NO. 97] are 100 and 106%.
The corresponding values for B2 are 100 and 16%.
As for B3, the “Ratio vs. GLP-1R” value stood at 100 and the “Relative % to native ligand” value turned out to be 38%.
The corresponding values for Y[Aib]QGTFTSDYSK([AEEA-AEEA-γGlu-C18])LLDYMMQ[Aib]DFVQWLLEGGPSSGAPPPS-NH2 [SEQ ID NO. 84] are 100 and 71%.
On to Y[Aib]QGTFTSDYSK([AEEA-AEEA-γGlu-C18])LLDYMMQRDFVQWLLEGGPSSGAPPPSK(Biotin)-NH2 [SEQ ID NO. 90], for which the “Ratio vs. GLP-1R” value was 100 and the “Relative % to native ligand” value came to 50%.
